# Data as given in the supplement of paper PMC9170038.
# System: K4 kissing-loop RNA reporter
# Assay: apparent KD of K4 kissing-loop reporter; higher = weaker reporter binding
# Conditions: Eterna round: R107
# Procedure: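 RNA-MaP round R107: designed RNA switches with theophylline, tryptophan, arginine or FMN aptamers are transcribed on-chip within common flanks. They are titrated with a labelled K4 kissing-loop RNA reporter in RNA-MaP buffer (100 mM Tris pH 7.5, 80 mM KCl, 4 mM MgCl2), without ligand or with the indicated ligand. Median apparent KD per design.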
# [1] = input ligand: theophylline 20 uM
# [2] = input ligand: tryptophan 2.4 mM
# 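Note: bound reporter read as fluorescence of individual clusters on recovered sequencing chips by microscopy, with normalized cluster intensities fitted with a binding model.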
Sequence,apparent KD of K4 kissing-loop reporter (input ligand: FMN 200 uM),apparent KD of K4 kissing-loop reporter (input ligand: arginine 13.2 mM),apparent KD of K4 kissing-loop reporter (input ligand: none),apparent KD of K4 kissing-loop reporter [1],apparent KD of K4 kissing-loop reporter [2]
AAGUCAUAUAGAAGGAGCGUGUUUUUUAAUUUGUUUUCAUGAUCGAGUGAUGUUCGAUAUACACAGGUAGGUCGCUGUAUGAUAA [hbob_SS_Arginine_B_2t143],128 nM,146 nM,130 nM,177 nM,114 nM
GGUUUAUAGGAGGAUACCAGUACGGAUAAAGUACGUUAAUAGUAGAGUGAUGUUCUAAAGUACCCUUGGCAGCUUAGAGUAAGUU [ExTheophylB.K],85.8 nM,147 nM,105 nM,117 nM,63.4 nM
ACGAAGGAUGGAAGGAGCGCUCGUCAGUCCUGCGAGUGAUGUUCGUGGGUAAAUAUUCGCGAGCAGGUAGGUCGCCAUCUUGAAC [Veticeen],146 nM,104 nM,137 nM,121 nM,134 nM
UGAUAGGACAGAAGGAGCGGAAGUGAUGUUUCCAAAAGGGAAGGUCGACAAAGUCGACCCUUCCAGGUAGGUCGCUGUCCUAUCU [ArgBX 9 #Palindromic #SwitchBubble #StaticStem],75.9 nM,72.5 nM,73.9 nM,86.1 nM,68.7 nM
GGGAGUGAUGUUCCCACGUUGUCGGUCCUCCGAGGACCGGUACGGCCGCCACUCGCGACCCAGUGAUGUUGGGACUCACCGUACC [Exclusion Tryptophan A Gf 12],509 nM,377 nM,558 nM,557 nM,218 nM
UAAUAAAUUCCAGCGAUAUCGCUCUUCGAAGGAGCGGGCGAAGGUCCAGGUAGGUCGCGGAGAGUGAUGUUCUUUGCGGCGCUGG [whbob_Ex_Arginine_A_2t135],216 nM,225 nM,239 nM,226 nM,273 nM
AGGUACAAAAGUACCGCUAGAUCCACGGAAGGAGCGGCCGAAAGGCCAGGUAGGUCGCCGGGCAGUGAUGUUGCCGGAUCUAGCA [Omei KL Arginine A SS A v2],194 nM,171 nM,200 nM,185 nM,169 nM
UGGAUAUAGUGAUGUUAUAUAGAGAGUGAUACCAGUUUAGAGAAGAACCCUUGGCAGCAUAGAAGAGUAUCAUUGGAGAAGAAUG [ExTheophyl.Aq],243 nM,193 nM,242 nM,181 nM,155 nM
GGGCCUCUGGCUGAUACCAGUGAUGCAGGGUCCGAGACAGGGAGUGAUGUUCCCUGCAGCCACCCUUGGCAGCAGUUUAAGUUUG [Exclusion Theophylline B GF 19],136 nM,124 nM,122 nM,124 nM,129 nM
CUAAUCGCUCAUGAUACCAGCUAGUGAUGUUAGCCCGUCAAGCUGAGGGUUCAUCCACCCAGCCCUUGGCAGCAUUCUCGGUCAG [theeternabot_exclusion_KL_Theo_B_8],441 nM,313 nM,387 nM,449 nM,364 nM
GCAGUCAAUCGACCACGAAAGUGGAUGGAUACCAGAGUCGAAAGACUCCCUUGGCAGCCAGUGAUGUUGGAAGACUGCAAUAAAA [#SwitchBubble 16 #K4Late],1120 nM,357 nM,622 nM,479 nM,468 nM
GUAGGAUGGUGCGAUACCAGACCUGCAGUGAUGUUGCGCCAUAGUGAGUGAUGUUCACCGGUCCCUUGGCAGCGCGUCCAUAAAG [Same State Theophylline B GF 17],1060 nM,719 nM,1250 nM,1160 nM,882 nM
UUCGUAGUAGGAAACUAUUACGAAAAGGAAGGAGCGGCGAAGAAGCCAGGUAGGUCGCCUAUUGACAGUGAUGUUGUUAUAUAGA [#10],144 nM,239 nM,176 nM,205 nM,162 nM
GGCAUAUGAAAUCGCCUAGAGAGAAAGGAUACCAGCACCCGGCGGUGCCCUUGGCAGCCUAGCCCAGUGAUGUUGGGUCCUCUAA [Rasoonanxe],228 nM,149 nM,167 nM,296 nM,144 nM
GGGAAGUACGGAGGAUAUGCACUGAGGAGGAGAAUAUAGUGAUGUUAUAUAAGAGGAAGGAGAAGAGUAGAAGGCCGUGGAAAGG [SSFMNB.C],175 nM,115 nM,228 nM,151 nM,117 nM
ACCUACGAUCACGAAAGUGAUUGUAGGAUCUAGGAUAUGCUGAAGAGCAGAAGGAGAGUGAUGUUCUCAUCUCACGAAAGUGAGA [whbob_Ex_FMNA__2th190],437 nM,206 nM,217 nM,245 nM,221 nM

Sequence,apparent KD of K4 kissing-loop reporter (input ligand: FMN 200 uM),apparent KD of K4 kissing-loop reporter (input ligand: arginine 13.2 mM),apparent KD of K4 kissing-loop reporter (input ligand: none),apparent KD of K4 kissing-loop reporter [1],apparent KD of K4 kissing-loop reporter [2]
AGUGCCUGCCUUAGCCUUCCCAUCAACUUCCGAGGACCGGUACGGCCGCCACUCGGCCAUCGGGCUAGUGAUGUUACCUGGUGGA [theeternabot_sameState_KL_Trp_A_50],337 nM,302 nM,327 nM,320 nM,224 nM
GCAGUGAUGUUGCGGAUGUACAGUGGCGUGCGAGGACCGGUACGGCCGCCACUCGUACAGCACAAGCUAAUACAUCGAUAGGUGA [whbob_SS_Tryp_A_m2],566 nM,287 nM,357 nM,380 nM,430 nM
UGUACCGAGUCAGGAUAUCGCGUCGAAAGACGAAACGAGUGAUGUUCGAAUCGAUCGAAAGAUCGUCGAGAAGGGACUUGGUACU [FmnBS 22 #SwitchBubble #StaticStem #DoubleMagnetSystem],219 nM,676 nM,642 nM,569 nM,589 nM
CGCAGUGAUGUUGCGAGUAGCUACAGGGAAGGAGCGUGCUAGAGCACAGGUAGGUCGCCCAGUGGCAGUGAUGUUGCCAAAGGGU [Exclusion ARginine A GF 17],126 nM,119 nM,118 nM,126 nM,116 nM
CCGAAGAACCAGUGAUGUUGGUUGACUAGACAGGAUAUGAGCAACAUCAGAAGGGUCUGGCUUCGGGAGUGGGCCGCGCUGACCU [Artilati],324 nM,193 nM,240 nM,1210 nM,395 nM
UGUGCCAAAUGUGAUACCAGCUUCCUGCAGUGAUGUUGCAUACGAGUGAUGUUCGUCCGAGGCCCUUGGCAGCGCAGUCGUUUGA [Same State Theophylline B GF 27],450 nM,442 nM,528 nM,437 nM,352 nM
GAUAUAGUGAUGUUAUAUACUGAUAGACAACGAGGACCGGUACGGCCGCCACUCGAGAGGGUGAAAUUAAUGAUAAAAUAAUAAU [ExyTryA#2],322 nM,351 nM,356 nM,307 nM,270 nM
GCCUGGGCACGAAGGAGCGCCGUGACAGGUUACUGCAUUGGGCAGUGAUGUUGCUCAAUCUGGCAGGUAGGUCGCGUGCCCAGGC,106 nM,114 nM,110 nM,120 nM,113 nM
UGACUGGAUGGAAGGAGCGCUAAACUCCUAGUGAUGUUAGGGAUAUGAGGCAAAGCCUCGAAGCAGGUAGGUCGCCAUCUAGUCU [FiskerMod 20 - Jieux - Same State - Arginine B],159 nM,114 nM,148 nM,160 nM,156 nM
CCUCACGUAGGACUAGUGAUGUUAGACUACCGAGGACCGGUACGGCCGCCACUCGUCGUACAAGAUAACCUUCCGCCAGUAUACG,110 nM,85.1 nM,98.9 nM,88.4 nM,140 nM
UACAAUUUGGCGGCCGCCACUGACCAUAGCCUUCGAUGGCCAGUGAUGUUGGCCUCUGGCUCUAACAGGACCGGGCCAAAUUAUG [Maeste],313 nM,216 nM,271 nM,245 nM,117 nM
UUAGCUCUAUAGAGCAAGAGGUAUACUGAUACCAGAGGCUAUAGCCUCCCUUGGCAGCGGAUCGAGUGAUGUUCGUAACCUCAUU [AK4.5 SS Theophylline A],616 nM,661 nM,812 nM,724 nM,433 nM
CUUAAGGAGUGUCGUGCCGGACACUGGGAAGGAGCGCAAUUCUUUGCAGGUAGGUCGCCCAGUGAUGUUGGGUGGCGCUGUCGAA [Laatonbi],190 nM,156 nM,149 nM,156 nM,128 nM
GUUACGCAUGGAAGGAGCGCAUGCUCAACUAUAAGCUCAGUGAUGUUGAGCAUUUUUUUUUUGCAGGUAGGUCGCCAUGUGUAAC [Ex Arginine B K4 29],320 nM,255 nM,386 nM,438 nM,217 nM
UUAUUAAUAACAGAUACCAGUCCAGAAUGAAAACUAUAGUGAUGUUAUAAUAAAGGGAAGGACCCUUGGCAGCUGUAAUAUAUUU [AstrosSSTheB#2],525 nM,427 nM,497 nM,452 nM,394 nM
UCCACGCUUAGAGGAUAUCGGAUUAGAGUGAUGUUCUAAAGAAGCCCAGUGAUGUUGGAUGGUAUACGAGAAGGCUGAGGCGUGG [Same State FMN B GF 3],229 nM,629 nM,725 nM,588 nM,492 nM
